Assay results taken from patent publication US9701748B2, “Humanized anti-CD22 antibody” (IMMUNOMEDICS, INC., priority 2014, dated 2017).

What was measured:
subjects = conditions: reported, Morchhauser et al., 2009, Goldenberg et al., Robak & Robak, 2011; cited from earlier work
[1] = test system: B cells gated from PBMCs of healthy donors; test: Trogocytosis: surface antigen levels on B cells after overnight treatment of PBMCs, flow cytometry; type: cell-based, human
Description: (§1) Peripheral blood mononuclear cells (PBMCs) obtained from healthy donors were incubated overnight (16-24 h) with 10 μg/mL of either epratuzumab or an isotype control mAb (hMN-14) and the relative levels of various antigens on the surface of the B cells were analyzed by flow cytometry. PBMCs from heparinized whole blood of normal donors were isolated by density gradient centrifugation on UNI-SEP tubes (Novamed Ltd, Israel). PBMCs were reconstituted in RPMI media supplemented with 10% heat inactivated fetal bovine serum and plated at a cell density of 1.5×10^6/mL in non-tissue culture treated 48-well plates. […] Stained cells were analyzed by flow cytometry on a FACSCALIBUR® (BD Biosciences) using Flowjo (V7.6.5) software. Initially, the lymphocyte population was gated by side vs. forward scattering, and B cells were further gated from this population with the CD19 signal. The mean fluorescence intensity (MFI), obtained with fluorochrome-conjugated antibodies to various cell surface antigens, on the gated B cells was calculated following treatment with epratuzumab, hMN-14 or without antibody. PBMCs from 16 healthy donors were assessed in various experiments.

B cells in PBMCs = test: Relative B cell count after overnight treatment of PBMCs; type: cell-based, human
Description: as §1

NHL patients = conditions: cited from earlier work
[2] = Complement-dependent cytotoxicity in vitro; type: cell-based
[3] = test system: patients with SLE who have failed at least one previous therapy; test: Combination therapy of SLE with hRFB4 and hLL2; type: in vivo, human; conditions: single antibody alone, same dosage and schedule
Description: Patients with SLE who have failed at least one previous therapy receive combination therapy with 160 mg each of hRFB4 and hLL2 (epratuzumab), administered s.c. in 2 injections weekly for four weeks. Control groups receive hRFB4 alone, hLL2 alone or irrelevant antibody (hMN-14) at the same dosage and schedule. […] All serum samples evaluated for anti-human antibodies (HAHA) are negative.

CD22 = biological target: T1, CD22 (Homo sapiens, UniProt P20273); test: Binding affinity for CD22+ Daudi cells determined by ELISA (FIG. 2); conditions: CD22+ Daudi cells, FIG. 2
T1 construct: endogenous in cells; host or cells: Daudi (Burkitt lymphoma) cells
Description: FIG. 2. Comparative binding affinity for CD22+ Daudi cells of hLL2 IgG, hRFB4 IgG, chimeric RFB4 conjugated to AD2 peptide, and hMN-14 IgG, as determined by ELISA. The binding affinity of hRFB4 as determined for Daudi cells is about 10-fold higher than that of hLL2 and about 30% higher than the chimeric RFB4.
The hRFB4 antibody was prepared as described above, resulting in a humanized anti-CD22 antibody with variable region sequences as shown in FIG. 1A and FIG. 1B (SEQ ID NO:7 and SEQ ID NO:8). After expression, the binding affinity or CD22+ Daudi cells was compared to that of the hLL2 antibody, comprising the same FR and constant region sequences but different CDR sequences, and to the chimeric RFB4 antibody, comprising the same CDR sequences but different FR and constant region sequences.

circulating B cells = conditions: may be overestimated due to use of CD19+ cells to measure B cells; cited from earlier work
[4] = Antibody-dependent cell-mediated cytotoxicity in vitro; type: cell-based
Daudi cells = test: Dose-response of trogocytosis of CD22 and CD19 from Daudi cells (FIG. 6A, 6B); type: cell-based, human
[5] = test system: NHL Burkitt cell lines (Daudi, Raji, and Ramos); test: Surface markers on NHL Burkitt cell lines, isolated or spiked into normal PBMCs; type: cell-based, human
Excerpt: This mechanism of action may explain the limited effectiveness of high doses of epratuzumab compared to lower doses in patients with SLE.

[6] = 4 doses of 80, 160 or 320 mg s.c. every two weeks
[7] = 10 μg/mL, overnight, PBMCs of healthy donors

In the case of “veltuzumab: humanized IgG1 antibody against CD20”, the “immunogenicity compared with rituximab” value (subjects) is given as “less immunogenic in subjects than rituximab”, the “reduction of CD19, CD21 and CD79b compared with epratuzumab” value ([1]; PBMCs of healthy donors, overnight, FIG. 9) is given as “greater extent than epratuzumab” and the “reduction of the B cell count” value (B cells in PBMCs; 10 μg/mL, overnight, PBMCs of healthy donors, FIG. 9) is given as 40%. For the same molecule, the “objective response in the 80 mg dosage group” value (NHL patients; 80 mg) was 67%, the “patients showing a complete response in the 80 mg dosage group” value (NHL patients; 80 mg) was “one of three” and the “CR/CRu (complete response) rate” value (NHL patients; [6]) was 24%. The “objective response rate (CR+CRu+PR)” value (NHL patients; [6]) was 47%, the “objective responses continued for 60 weeks” value (NHL patients; 60 weeks) was “Four out of eight” and the “HAHA in serum samples” value (NHL patients; all serum samples evaluated) was “negative”. The safety (NHL patients; s.c.) was “Only occasional, mild to moderate and transient injection reactions”.

B1: hLL2: humanized anti-CD22 antibody hLL2 (epratuzumab) (antibody, V domains shown)
VH: QVQLQQSGAEVKKPGSSVKVSCKASGYTFTSYWLHWVRQAPGQGLEWIGYIYPRNDYTEYNQNFKDKATITADESTNTAYMELSSLRSEDTAFYFCARRDITTFYWGQGTTVTVSS
VL: DIQLTQSPSSLSASVGDRVTMSCKSSQSVLYSANHKNYLAWYQQKPGKAPKLLIYWASTRESGVPSRFSGSGSGTDFTFTISSLQPEDIATYYCHQYLSSWTFGGGTKVQIKR
In the case of B1, the complement-dependent cytotoxicity [2] is reported as “negligible”, the “CD19 level on B cells, % of untreated or control mAb” value [1, 7] is reported as 50% and the “CD20 level on B cells, % of untreated or control mAb” value [1, 7] is reported as 82%. For the same molecule, the “CD21 level on B cells, % of untreated or control mAb” value [1, 7] was 52%, the “CD22 level on B cells, % of untreated or control mAb” value [1, 7] was 10% and the “CD62L level on B cells, % of untreated or control mAb” value [1, 7] was 73%. The “CD79b level on B cells, % of untreated or control mAb” value [1, 7] was 70%, the “change of CD27 (on CD27+ B cells), CD40, CD44, CD45, β7 integrin and LFA-1 (CD11a and CD18)” value [1, 7] was under 10 % change and the “responsiveness of CD27− naive B cells compared to CD27+ memory B cells” value ([1]; CD19, PBMCs from 3 healthy donors) was “more responsive”. The “time course of the reduction of surface antigens” value ([1]; PBMCs of healthy donors) was “essentially complete within a few hours”, the objective responses [3] was “Objective responses are observed” and the Kd (CD22) was 2 nM. The “depletion of circulating B cells in patients, on average” value (circulating B cells) was 35%, the B cell depletion (B cells in PBMCs; either at 10 μg/mL or 1 mg/mL, ex vivo) was “did not cause significant B cell depletion” and the antibody-dependent cell-mediated cytotoxicity [4] was “modest, but significant”. The “minimal concentration to induce the maximal level of trogocytosis of CD19” value (Daudi cells; CD19 from Daudi cell, FIG. 6B) was 10 ng/mL, the “minimal concentration to induce the maximal level of trogocytosis of CD22” value (Daudi cells; CD22 from Daudi cell, FIG. 6A) was 10 ng/mL and the “concentration inducing the maximal level of trogocytosis of CD19 and CD22” value (Daudi cells; dose-response curve, FIG. 6A and 6B) was 10 ng/mL. The “reduction of CD22, CD19, CD21, CD20 and CD79b on the surface of B cells” value ([5]; PBMCs from normal donors or lupus patients, and NHL lines spiked into normal PBMCs) was “substantial reduction” and the “surface markers decreased in isolated NHL cells” value ([5]; isolated NHL cells, no effector cells) was “only CD22, but not other surface markers, was appreciably decreased”.
